Data reported in publication PMC9482650, “Quantitative fragmentomics allow affinity mapping of interactomes” (Nature Communications, 2022).

T1: APBA2_1, Q99767
T1 sequence (Q99767 563-664, limits assumed, looked up): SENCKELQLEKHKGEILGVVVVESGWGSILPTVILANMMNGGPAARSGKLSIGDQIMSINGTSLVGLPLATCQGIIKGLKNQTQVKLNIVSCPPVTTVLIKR

T2: APBA2_2, Q99767
T2 sequence (Q99767 654-744, limits assumed, looked up): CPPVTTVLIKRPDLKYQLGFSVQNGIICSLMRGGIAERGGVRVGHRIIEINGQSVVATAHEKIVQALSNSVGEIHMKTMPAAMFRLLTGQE

T3: DFNB31_1, Q9P202
T3 sequence (Q9P202 135-233, limits assumed, looked up): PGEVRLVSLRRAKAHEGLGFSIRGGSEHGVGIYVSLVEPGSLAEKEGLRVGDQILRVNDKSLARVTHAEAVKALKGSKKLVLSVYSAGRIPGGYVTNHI

T4: GRIP1_2, Q9Y3R0
T4 sequence (Q9Y3R0 145-248, limits assumed, looked up): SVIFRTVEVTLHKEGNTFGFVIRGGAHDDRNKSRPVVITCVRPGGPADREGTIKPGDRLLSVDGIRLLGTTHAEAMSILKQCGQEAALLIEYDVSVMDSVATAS

T5: MPDZ_10, O75970
T5 sequence (O75970 1624-1722, limits assumed, looked up): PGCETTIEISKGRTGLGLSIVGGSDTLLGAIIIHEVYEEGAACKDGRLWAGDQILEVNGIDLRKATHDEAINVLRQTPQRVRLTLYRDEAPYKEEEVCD

T6: NHERF3_1, Q5T2W1
T6 sequence (Q5T2W1 4-100, limits assumed, looked up): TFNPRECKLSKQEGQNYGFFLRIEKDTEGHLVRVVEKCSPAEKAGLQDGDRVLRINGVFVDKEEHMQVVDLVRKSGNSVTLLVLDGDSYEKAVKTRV

T7: PARD3B_1, Q8TEW8
T7 sequence (Q8TEW8 196-299, limits assumed, looked up): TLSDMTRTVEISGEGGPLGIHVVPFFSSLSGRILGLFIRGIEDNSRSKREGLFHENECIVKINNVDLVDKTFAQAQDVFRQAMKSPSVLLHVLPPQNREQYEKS

T8: PDZRN3_1, Q9UPQ7
T8 sequence (Q9UPQ7 244-349, limits assumed, looked up): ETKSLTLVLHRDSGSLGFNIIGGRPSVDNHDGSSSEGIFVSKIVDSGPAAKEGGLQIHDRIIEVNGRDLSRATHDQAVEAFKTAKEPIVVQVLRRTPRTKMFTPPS

T9: PTPN13_1, Q12923
T9 sequence (Q12923 1088-1188, limits assumed, looked up): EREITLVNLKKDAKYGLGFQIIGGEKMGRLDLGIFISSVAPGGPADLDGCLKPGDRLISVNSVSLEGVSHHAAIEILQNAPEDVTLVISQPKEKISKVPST

T10: SNTG2, Q9NY99
T10 sequence (Q9NY99 68-166, limits assumed, looked up): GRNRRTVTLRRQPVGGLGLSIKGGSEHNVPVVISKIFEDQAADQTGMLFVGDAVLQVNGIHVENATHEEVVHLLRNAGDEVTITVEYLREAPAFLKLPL

T11: TIAM2, Q8IVF5
T11 sequence (Q8IVF5 885-986, limits assumed, looked up): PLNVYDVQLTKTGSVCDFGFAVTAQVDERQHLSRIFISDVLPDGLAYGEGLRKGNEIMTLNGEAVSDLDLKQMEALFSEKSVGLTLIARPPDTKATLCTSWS

B1: NEB, P20929 (peptide)
chain: MLPANYVEAI
B2: LRRC4, Q9HBW1 (peptide)
chain: TKDKVQETQI
B3: CACNA1D, Q01668 (peptide)
chain: ADEMICITTL
B4: HDAC7, Q8WUI4 (peptide)
chain: LVEEEEPMNL
B5: FAM167B, Q9BTA0 (peptide)
chain: NISARRFTLC

How the values were obtained:
Assay in all cases: holdup assay
Design in all cases: key: below the threshold = too weak to quantify, mostly under pKd 3.1 to 4
Conditions in all cases: plain residues with an end cap or a label only (N-terminal biotin on a linker: ado-ado)
APBA2_1, Q99767 = target: T1, APBA2_1, Q99767
APBA2_2, Q99767 = target: T2, APBA2_2, Q99767
DFNB31_1, Q9P202 = target: T3, DFNB31_1, Q9P202
DLG4_1, P78352 = target: DLG4_1, P78352
DLG4_1, P78352, sequence (P78352 62-152): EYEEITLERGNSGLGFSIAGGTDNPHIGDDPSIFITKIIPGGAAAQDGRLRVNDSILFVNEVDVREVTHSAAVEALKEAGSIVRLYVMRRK

FRMPD2_3, Q68DX3 = target: FRMPD2_3, Q68DX3
FRMPD2_3, Q68DX3, sequence (Q68DX3 1073-1166): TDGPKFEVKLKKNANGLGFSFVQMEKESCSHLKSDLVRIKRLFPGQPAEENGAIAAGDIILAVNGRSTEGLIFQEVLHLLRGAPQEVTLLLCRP

FRMPD3, Q5JV73 = target: FRMPD3, Q5JV73
FRMPD3, Q5JV73, sequence (Q5JV73 12-100): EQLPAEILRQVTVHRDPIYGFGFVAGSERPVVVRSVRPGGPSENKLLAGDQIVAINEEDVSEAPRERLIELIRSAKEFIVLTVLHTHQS

GORASP1, Q9BQQ3 = target: GORASP1, Q9BQQ3
GORASP1, Q9BQQ3, sequence (Q9BQQ3 1-208): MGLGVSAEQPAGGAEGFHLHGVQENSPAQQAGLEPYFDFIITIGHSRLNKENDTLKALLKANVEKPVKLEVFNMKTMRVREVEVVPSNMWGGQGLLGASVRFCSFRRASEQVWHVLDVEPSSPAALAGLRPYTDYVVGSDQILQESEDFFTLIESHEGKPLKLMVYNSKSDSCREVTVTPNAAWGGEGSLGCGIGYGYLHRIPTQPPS

GRIP1_2, Q9Y3R0 = target: T4, GRIP1_2, Q9Y3R0
GRIP2_3, Q9C0E4 = target: GRIP2_3, Q9C0E4
GRIP2_3, Q9C0E4, sequence (Q9C0E4 238-339): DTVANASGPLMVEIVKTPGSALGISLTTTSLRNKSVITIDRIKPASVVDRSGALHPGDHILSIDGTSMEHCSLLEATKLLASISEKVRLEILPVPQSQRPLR

GRIP2_4, Q9C0E4 = target: GRIP2_4, Q9C0E4
GRIP2_4, Q9C0E4, sequence (Q9C0E4 446-548): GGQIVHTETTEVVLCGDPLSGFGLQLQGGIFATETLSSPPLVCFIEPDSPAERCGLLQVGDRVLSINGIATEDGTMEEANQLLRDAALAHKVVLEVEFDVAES

GRIP2_5, Q9C0E4 = target: GRIP2_5, Q9C0E4
GRIP2_5, Q9C0E4, sequence (Q9C0E4 544-642): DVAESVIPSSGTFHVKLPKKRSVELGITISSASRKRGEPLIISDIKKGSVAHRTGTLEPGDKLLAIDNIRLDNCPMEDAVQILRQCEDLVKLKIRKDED

GRIP2_6, Q9C0E4 = target: GRIP2_6, Q9C0E4
GRIP2_6, Q9C0E4, sequence (Q9C0E4 648-740): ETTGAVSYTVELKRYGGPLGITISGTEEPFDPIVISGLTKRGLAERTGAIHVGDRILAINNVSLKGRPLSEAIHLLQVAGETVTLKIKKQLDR

HTRA2, O43464 = target: HTRA2, O43464
HTRA2, O43464, sequence (O43464 355-458): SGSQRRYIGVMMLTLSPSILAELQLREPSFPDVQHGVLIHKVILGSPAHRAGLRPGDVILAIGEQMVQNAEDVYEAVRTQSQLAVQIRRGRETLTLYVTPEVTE

Inadl_2, Q8NI35 = target: Inadl_2, Q8NI35
Inadl_2, Q8NI35, sequence (Q8NI35 238-335): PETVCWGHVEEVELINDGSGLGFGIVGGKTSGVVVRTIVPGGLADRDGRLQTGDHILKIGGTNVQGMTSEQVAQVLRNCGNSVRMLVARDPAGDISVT

LAP2, Q96RT1 = target: LAP2, Q96RT1
LAP2, Q96RT1, sequence (Q96RT1 other isoform, or with tags, fused parts or gaps): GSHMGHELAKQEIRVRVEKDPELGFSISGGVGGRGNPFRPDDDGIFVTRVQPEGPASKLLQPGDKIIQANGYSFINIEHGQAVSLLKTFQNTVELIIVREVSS

LNX1_1, Q8TBB1 = target: LNX1_1, Q8TBB1
LNX1_1, Q8TBB1, sequence (Q8TBB1 261-371): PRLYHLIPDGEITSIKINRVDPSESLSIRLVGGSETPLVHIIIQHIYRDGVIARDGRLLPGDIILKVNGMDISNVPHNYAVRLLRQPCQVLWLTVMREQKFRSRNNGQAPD

LNX1_2, Q8TBB1 = target: LNX1_2, Q8TBB1
LNX1_2, Q8TBB1, sequence (Q8TBB1 371-470): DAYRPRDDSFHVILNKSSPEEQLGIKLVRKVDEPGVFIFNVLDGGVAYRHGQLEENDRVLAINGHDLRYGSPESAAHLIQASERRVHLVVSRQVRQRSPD

MAGI1_1, Q96QZ7 = target: MAGI1_1, Q96QZ7
MAGI1_1, Q96QZ7, sequence (Q96QZ7 1-106): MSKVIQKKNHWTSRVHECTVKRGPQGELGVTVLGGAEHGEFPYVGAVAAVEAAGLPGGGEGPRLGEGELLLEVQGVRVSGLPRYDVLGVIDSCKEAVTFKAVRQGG

MPDZ_10, O75970 = target: T5, MPDZ_10, O75970
NHERF2_2, Q15599 = target: NHERF2_2, Q15599
NHERF2_2, Q15599, sequence (Q15599 142-238): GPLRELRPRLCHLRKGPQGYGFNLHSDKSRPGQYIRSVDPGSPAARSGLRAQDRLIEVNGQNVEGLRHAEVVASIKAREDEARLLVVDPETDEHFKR

NHERF3_1, Q5T2W1 = target: T6, NHERF3_1, Q5T2W1
PARD3B_1, Q8TEW8 = target: T7, PARD3B_1, Q8TEW8
PARD3_3, Q8TEW0 = target: PARD3_3, Q8TEW0
PARD3_3, Q8TEW0, sequence (Q8TEW0 582-685): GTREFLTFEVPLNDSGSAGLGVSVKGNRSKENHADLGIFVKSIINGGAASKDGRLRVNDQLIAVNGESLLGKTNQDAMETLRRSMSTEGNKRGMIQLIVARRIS

PDZRN3_1, Q9UPQ7 = target: T8, PDZRN3_1, Q9UPQ7
PTPN13_1, Q12923 = target: T9, PTPN13_1, Q12923
SNTG2, Q9NY99 = target: T10, SNTG2, Q9NY99
TIAM2, Q8IVF5 = target: T11, TIAM2, Q8IVF5

Binder	pKd (APBA2_1, Q99767)	pKd (APBA2_2, Q99767)	pKd (DFNB31_1, Q9P202)	pKd (DLG4_1, P78352)	pKd (FRMPD2_3, Q68DX3)	pKd (FRMPD3, Q5JV73)	pKd (GORASP1, Q9BQQ3)	pKd (GRIP1_2, Q9Y3R0)	pKd (GRIP2_3, Q9C0E4)	pKd (GRIP2_4, Q9C0E4)	pKd (GRIP2_5, Q9C0E4)	pKd (GRIP2_6, Q9C0E4)	pKd (HTRA2, O43464)	pKd (Inadl_2, Q8NI35)	pKd (LAP2, Q96RT1)	pKd (LNX1_1, Q8TBB1)	pKd (LNX1_2, Q8TBB1)	pKd (MAGI1_1, Q96QZ7)	pKd (MPDZ_10, O75970)	pKd (NHERF2_2, Q15599)	also measured
B1	below the threshold	below the threshold	below the threshold	below the threshold	below the threshold	below the threshold	3.7	below the threshold	below the threshold	below the threshold	below the threshold	below the threshold	below the threshold	below the threshold	below the threshold	below the threshold	below the threshold	below the threshold	below the threshold	below the threshold	pKd (NHERF3_1, Q5T2W1): below the threshold; pKd (PARD3B_1, Q8TEW8): below the threshold; pKd (PARD3_3, Q8TEW0): below the threshold; pKd (PDZRN3_1, Q9UPQ7): below the threshold; pKd (PTPN13_1, Q12923): below the threshold; pKd (SNTG2, Q9NY99): below the threshold; pKd (TIAM2, Q8IVF5): 3.96
B2	below the threshold	below the threshold	5.43	4.44	below the threshold	below the threshold	below the threshold	below the threshold	below the threshold	below the threshold	below the threshold	below the threshold	below the threshold	below the threshold	3.54	3.99	below the threshold	3.59	below the threshold	4.11	pKd (NHERF3_1, Q5T2W1): 5.21; pKd (PARD3B_1, Q8TEW8): 3.76; pKd (PARD3_3, Q8TEW0): 3.81; pKd (PDZRN3_1, Q9UPQ7): 4.4; pKd (PTPN13_1, Q12923): below the threshold; pKd (SNTG2, Q9NY99): 5.1; pKd (TIAM2, Q8IVF5): below the threshold
B3	below the threshold	below the threshold	3.63	below the threshold	below the threshold	below the threshold	4	below the threshold	below the threshold	below the threshold	below the threshold	below the threshold	3.83	below the threshold	3.66	4.48	below the threshold	3.51	below the threshold	4.63	pKd (NHERF3_1, Q5T2W1): 4.22; pKd (PARD3B_1, Q8TEW8): 4.84; pKd (PARD3_3, Q8TEW0): 4.38; pKd (PDZRN3_1, Q9UPQ7): below the threshold; pKd (PTPN13_1, Q12923): below the threshold; pKd (SNTG2, Q9NY99): 4.47; pKd (TIAM2, Q8IVF5): 4.19
B4	below the threshold	below the threshold	below the threshold	below the threshold	below the threshold	below the threshold	below the threshold	below the threshold	below the threshold	below the threshold	below the threshold	below the threshold	below the threshold	below the threshold	below the threshold	below the threshold	below the threshold	below the threshold	below the threshold	3.5	pKd (NHERF3_1, Q5T2W1): below the threshold; pKd (PARD3B_1, Q8TEW8): below the threshold; pKd (PARD3_3, Q8TEW0): 4.23; pKd (PDZRN3_1, Q9UPQ7): below the threshold; pKd (PTPN13_1, Q12923): below the threshold; pKd (SNTG2, Q9NY99): below the threshold; pKd (TIAM2, Q8IVF5): below the threshold
B5	below the threshold	below the threshold	below the threshold	4.35	below the threshold	below the threshold	3.9	below the threshold	below the threshold	below the threshold	below the threshold	3.57	4.44	below the threshold	below the threshold	3.85	4.62	3.59	below the threshold	below the threshold	pKd (NHERF3_1, Q5T2W1): 4.11; pKd (PARD3B_1, Q8TEW8): below the threshold; pKd (PARD3_3, Q8TEW0): below the threshold; pKd (PDZRN3_1, Q9UPQ7): below the threshold; pKd (PTPN13_1, Q12923): below the threshold; pKd (SNTG2, Q9NY99): below the threshold; pKd (TIAM2, Q8IVF5): below the threshold
